Source: the supplement of paper PMC10724198
± gives the standard deviation of the averaged measurements.

Test system: Saccharomyces cerevisiae
Experiment: protein stability index of tFT-peptide fusion (C-terminal peptide) (PSI (0-1 scale)); higher = more stable (slower turnover)
Settings: temperature: 30 C
Experimental: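 MPS profiling in S. cerevisiae of the yeast C-terminome library: the last 12 aa of each annotated ORF are fused to the C-terminus of a sfGFP-mCherry timer, after a GGGS linker. Cells are FACS-sorted into 8 mCherry/sfGFP bins and deep-sequenced. PSI runs from 0 (unstable) to 1 (stable); wild type and das1Δ backgrounds, two technical replicates each.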

[1] = genetic background: das1 deletion

Row | Sequence | protein stability index [1] | protein stability index (genetic background: wild type)
1 | ETIWTEWHNLKK [DIG2 C-terminal 12 aa] | 0.726 ± 0.059 | 0.686 ± 0.0099
2 | ETRASCLLSRAF [YJL052C-A C-terminal 12 aa] | 0.6962 ± 0.0034 | 0.698 ± 0.015
3 | EVYLQAIDLIDC [PIR3 C-terminal 12 aa] | 0.6774 ± 0.0063 | 0.6614 ± 0.005
4 | EWAEENADNVEW [RPS0A C-terminal 12 aa] | 0.7363 ± 0.0068 | 0.728 ± 0.028
5 | EWFYEKFLGNIF [DIP5 C-terminal 12 aa] | 0.747 ± 0.013 | 0.702 ± 0.014
6 | EWVVPEHMLGPK [FUM1 C-terminal 12 aa] | 0.741 ± 0.0091 | 0.739 ± 0.041
7 | EYGGYGEYGNGS [RTG1 C-terminal 12 aa] | 0.6949 ± 0.0018 | 0.674 ± 0.0096
8 | EYTDFMSWMQDN [YER186C C-terminal 12 aa] | 0.74 ± 0.01 | 0.646 ± 0.15
9 | FAAPIKPSTRAG [YLR347W-A C-terminal 12 aa] | 0.6876 ± 0.0016 | 0.71 ± 0.0086
10 | FAQNTNKDVELN [NGG1 C-terminal 12 aa] | 0.682 ± 0.028 | 0.666 ± 0.046
11 | FASNKKVTASLR [AZR1 C-terminal 12 aa] | 0.696 ± 0.013 | 0.6868 ± 0.00086
12 | FDELVRKYDTSN [SEC28 C-terminal 12 aa] | 0.718 ± 0.017 | 0.665 ± 0.0076
13 | FEFEFFESCYNA [PET18 C-terminal 12 aa] | 0.744 ± 0.019 | 0.744 ± 0.038
14 | FGIWNTDMSVWS [YBL081W C-terminal 12 aa] | 0.699 ± 0.017 | 0.7253 ± 0.0045
15 | FGKYLPLNYPSE [ASG1 C-terminal 12 aa] | 0.7167 ± 0.0015 | 0.671 ± 0.015
16 | FGNDMVINFETD [UTP22 C-terminal 12 aa] | 0.7438 ± 0.0026 | 0.731 ± 0.12
17 | FHLNAKTRESEI [YDL162C C-terminal 12 aa] | 0.702 ± 0.012 | 0.67952 ± 0.00014
18 | FIHDVFFVYFRF [YDL094C C-terminal 12 aa] | 0.176 ± 0.0076 | 0.17 ± 0.006
19 | FIKLSLASSFSN [ISF1 C-terminal 12 aa] | 0.7094 ± 0.0028 | 0.661 ± 0.022
20 | FINKIYHQKVNL [TMN3 C-terminal 12 aa] | 0.707 ± 0.0078 | 0.781 ± 0.004
21 | FKAKFRKVKINA [YKR015C C-terminal 12 aa] | 0.6339 ± 0.0053 | 0.134 ± 0.0025

Row | Sequence | protein stability index [1] | protein stability index (genetic background: wild type)
22 | FKIFCNCIQSLA [YPL199C C-terminal 12 aa] | 0.341 ± 0.0075 | 0.323 ± 0.009
23 | FKSTPIIYSNVI [YER006C-A C-terminal 12 aa] | 0.724 ± 0.027 | 0.642 ± 0.0074
24 | FLEIVVPCHCTT [YJL077W-A C-terminal 12 aa] | 0.539 ± 0.0037 | 0.56 ± 0.021
25 | FLIWRKKVSRNK [YOR329W-A C-terminal 12 aa] | 0.73 ± 0.054 | 0.727 ± 0.11
26 | FLNIENPENQSE [RCO1 C-terminal 12 aa] | 0.687 ± 0.01 | 0.674 ± 0.018
27 | FLSMTYASLVNK [YLR294C C-terminal 12 aa] | 0.713 ± 0.022 | 0.706 ± 0.062
28 | FLVLKIIKALLW [MTC4 C-terminal 12 aa] | 0.526 ± 0.013 | 0.523 ± 0.026
29 | FRGKLFLDSITD [MLC2 C-terminal 12 aa] | 0.724 ± 0.0085 | 0.73 ± 0.034
30 | FRNYRGHYRGRK [SGS1 C-terminal 12 aa] | 0.705 ± 0.03 | 0.685 ± 0.039
31 | FSALVLRGVRGE [YBR196C-B C-terminal 12 aa] | 0.698 ± 0.014 | 0.6769 ± 0.0067
32 | FSDFLDSNRITQ [LDB19 C-terminal 12 aa] | 0.72756 ± 0.00057 | 0.723 ± 0.017
33 | FSDWKNNNGPHK [IBA57 C-terminal 12 aa] | 0.701 ± 0.02 | 0.71 ± 0.062
34 | FSTIDGSIKDIK [FDO1 C-terminal 12 aa] | 0.668 ± 0.023 | 0.6865 ± 0.0054
35 | FTGGDILPPEFN [SPS18 C-terminal 12 aa] | 0.7639 ± 0.0048 | 0.739 ± 0.015
36 | FTHFTSSKDRKD [SIT1 C-terminal 12 aa] | 0.711 ± 0.026 | 0.699 ± 0.021
37 | FVAKEIADDSKK [TIM12 C-terminal 12 aa] | 0.684 ± 0.016 | 0.709 ± 0.03
38 | GAAVAAGVAFLF [YDR524C-B C-terminal 12 aa] | 0.717 ± 0.018 | 0.717 ± 0.044
39 | GAAVRLTGSDRV [RPN7 C-terminal 12 aa] | 0.685 ± 0.007 | 0.679 ± 0.035
40 | GAMSEGKTGQLN [YLR036C C-terminal 12 aa] | 0.699 ± 0.02 | 0.6988 ± 0.0014
41 | GARPPKNEARII [YBL036C C-terminal 12 aa] | 0.694 ± 0.011 | 0.677 ± 0.038
42 | GCDLDISYAKRL [HRB1 C-terminal 12 aa] | 0.7155 ± 0.0028 | 0.695 ± 0.035

Row | Sequence | protein stability index [1] | protein stability index (genetic background: wild type)
43 | GCGCNCPEMFDA [MTC5 C-terminal 12 aa] | 0.6906 ± 0.0026 | 0.695 ± 0.029
44 | GDEEDPNEEAAF [RPC31 C-terminal 12 aa] | 0.692 ± 0.01 | 0.673 ± 0.027
45 | GDSDNVVKRLRK [URB1 C-terminal 12 aa] | 0.686 ± 0.018 | 0.707 ± 0.016
46 | GECVLTKNNKFT [ATG21 C-terminal 12 aa] | 0.672 ± 0.034 | 0.652 ± 0.026
47 | GFIRGSNKFAEV [SMC3 C-terminal 12 aa] | 0.6866 ± 0.0044 | 0.6658 ± 0.0058
48 | GFQTGSASKASA [RPL37A C-terminal 12 aa] | 0.71864 ± 0.00033 | 0.712 ± 0.019
49 | GIVYDFHKSDMY [LSM1 C-terminal 12 aa] | 0.683 ± 0.036 | 0.696 ± 0.043
50 | GKDITDQPCIDL [SSP2 C-terminal 12 aa] | 0.7054 ± 0.00083 | 0.725 ± 0.058
51 | GKTAADNIAKLY [OSM1 C-terminal 12 aa] | 0.6764 ± 0.004 | 0.619 ± 0.02
52 | GLCLCCTLDMLF [YDL012C C-terminal 12 aa] | 0.676 ± 0.014 | 0.6621 ± 0.0026
53 | GLLMAGKASEFQ [VMA16 C-terminal 12 aa] | 0.694 ± 0.013 | 0.72 ± 0.035
54 | GMLYALYIVLQD [PMP3 C-terminal 12 aa] | 0.301 ± 0.0097 | 0.32 ± 0.0081
55 | GNAIREIKTYKY [GLY1 C-terminal 12 aa] | 0.687 ± 0.035 | 0.658 ± 0.052
56 | GPSDDDEEDDKK [YGL242C C-terminal 12 aa] | 0.643 ± 0.043 | 0.675 ± 0.07
57 | GPTIPISATIRE [RCK2 C-terminal 12 aa] | 0.65756 ± 0.00065 | 0.735 ± 0.021
58 | GPYWKRVLDFWC [GNP1 C-terminal 12 aa] | 0.752 ± 0.012 | 0.739 ± 0.029
59 | GPYWKRVVAFWC [AGP1 C-terminal 12 aa] | 0.734 ± 0.017 | 0.549 ± 0.011
60 | GRNKIYILFNVL [YMR030W-A C-terminal 12 aa] | 0.6466 ± 0.0047 | 0.116 ± 0.0082
61 | GRVDFQSTSKFT [AIM24 C-terminal 12 aa] | 0.702 ± 0.036 | 0.7036 ± 0.0061
62 | GTAASEPTPITK [ATP15 C-terminal 12 aa] | 0.7295 ± 0.0065 | 0.681 ± 0.017
63 | GTKMEWFFDPLA [IPT1 C-terminal 12 aa] | 0.732 ± 0.025 | 0.701 ± 0.0081

Row | Sequence | protein stability index [1] | protein stability index (genetic background: wild type)
64 | GTMKVDSWEPVD [ACH1 C-terminal 12 aa] | 0.7 ± 0.013 | 0.6829 ± 0.0049
65 | GTVNYAGLHDEL [SED4 C-terminal 12 aa] | 0.687 ± 0.034 | 0.723 ± 0.044
66 | GVRKEFYELKRD [PRE7 C-terminal 12 aa] | 0.69519 ± 5.6e-05 | 0.693 ± 0.054
67 | GYKDRFGNLNVM [ATP7 C-terminal 12 aa] | 0.7037 ± 0.0041 | 0.687 ± 0.02
68 | GYQRGLDEFNKY [MRX18 C-terminal 12 aa] | 0.7148 ± 0.0013 | 0.681 ± 0.04
69 | HEKPHTVSLRHK [CPR4 C-terminal 12 aa] | 0.717 ± 0.013 | 0.721 ± 0.035
70 | HENSKCFTHYLI [AFR1 C-terminal 12 aa] | 0.684 ± 0.035 | 0.6605 ± 0.0065
71 | HERKRNKVLNTT [CMR3 C-terminal 12 aa] | 0.704 ± 0.021 | 0.661 ± 0.043
72 | HFYDRTNDLTNL [YNL144C C-terminal 12 aa] | 0.736 ± 0.024 | 0.68 ± 0.039
73 | HIFEKKIFHTNL [YOL097W-A C-terminal 12 aa] | 0.706 ± 0.018 | 0.65 ± 0.027
74 | HLAQMKMEQLLK [APQ12 C-terminal 12 aa] | 0.678 ± 0.015 | 0.67 ± 0.014
75 | HLCWLRCACDGP [YLR154C-G C-terminal 12 aa] | 0.716 ± 0.0083 | 0.699 ± 0.022
76 | HLSMVCDLELQL [NGL2 C-terminal 12 aa] | 0.738 ± 0.072 | 0.659 ± 0.045
77 | HNLESLVVAFNE [SPO16 C-terminal 12 aa] | 0.6872 ± 0.003 | 0.717 ± 0.064
78 | HPTSAEELVTMR [GLR1 C-terminal 12 aa] | 0.7175 ± 0.007 | 0.693 ± 0.071
79 | HYPLNSIPFTVT [YMR326C C-terminal 12 aa] | 0.706 ± 0.019 | 0.775 ± 0.087
80 | IADELDWLKFGI [GLN3 C-terminal 12 aa] | 0.906 ± 0.028 | 0.882 ± 0.019
81 | ICAWLLFFETIH [BST1 C-terminal 12 aa] | 0.458 ± 0.018 | 0.521 ± 0.059
82 | IDIPVQVKNSFI [YNR068C C-terminal 12 aa] | 0.711 ± 0.017 | 0.706 ± 0.051
